Test results published in patent publication US20070185028A1, “Compositions and methods for treatment of protein misfolding and protein aggregation diseases” (priority 2004, published 2007).

Key:
amyloid beta (1-42) = amyloid beta (1-42) (Homo sapiens, UniProt P05067); assay: Cu+++-induced aggregation of amyloid beta (1-42), light scattering 360 nm; assay type: biochemical; conditions: 100 mM Cu+++
Experimental: In vitro assays were also performed to measure the ability of the human αB crystallin derived peptides identified in Example 1 to inhibit aggregation of Cu^+++-induced amyloid beta (1-42) aggregation. Aggregation assays were performed using routine procedures, in the presence or absence of a synthesized peptide identified in Example 1, in the presence of 100 mM Cu^+++. Aggregation was measured spectrophotometrically as light scattering at a wavelength of 360 nm. Aggregated amyloid-beta was assigned a value of 100% aggregation and used to normalize aggregation in the presence of synthesize peptides.
Aggregation was measured spectrophotometrically as light scattering at a wavelength of 360 nm. Aggregated amyloid-beta was assigned a value of 100% aggregation and used to normalize aggregation in the presence of synthesize peptides. Aggregation was plotted as a bar graph with the standard error for duplicate experiments. The 1 st vertical bar is the scattering measured for aggregated amyloid-beta (100% aggregation) in the presence of 100 mM Cu^+++. The 2nd-4th vertical bars is the scattering from amyloid-beta in the presence of wild type recombinant human αB crystallin. The 5th-13th vertical bars are the scattering of amyloid-beta in the presence of the synthetic peptides, DRFSVNLDVKHFS or LTITSSLSDGV or HGKHEERQDE at selected concentrations. A prefix of 10× represents a 10:1 molar concentration of amyloid-beta to either wild type αB crystallin or its peptides. A prefix of 1× represents a 1:1 molar concentration of amyloid-beta to either wt αB crystallin or its peptides. A prefix of 0.1× represents a 1:10 molar concentration of amyloid-beta to either wt αB crystallin or its peptides.

β2-microglobulin (β2m) = biological target: T1, β2-microglobulin (β2m) (Homo sapiens, UniProt P61769); assay: β2-microglobulin fibrillation ThT assay; assay type: biochemical; conditions: five αB crystallin peptides and control
T1 construct: purchased MP Biomedical
T1 sequence (P61769 21-119): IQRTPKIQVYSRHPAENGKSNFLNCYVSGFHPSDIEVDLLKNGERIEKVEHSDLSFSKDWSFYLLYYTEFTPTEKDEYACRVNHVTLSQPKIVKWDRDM
Experimental: Addition of 5.8 μM αB crystallin peptides, ST, DR, LT, HG, and ER decreased the ThT fluorescence of β2m by 40-64%. When the concentration of the αB crystallin peptides was increased to 29 μM and 145 μM, no further decrease in ThT fluorescence was observed. The negative control peptide AT1 had no effect on β2m fibrillation even at a concentration as high as 290 μM. All five αB crystallin peptides inhibited β2m fibrillation at sub-stoichometric and stoichometric concentrations (5.8 μM and 29 μM).
The Thioflavin T (ThT) fluorescence of β2m in the presence of varying concentrations of αB crystallin peptides and controls was measured. […] When the concentration of the peptides was increased to 29 μM (1:1::peptide:β2m), the αB crystallin peptides decreased the ThT fluorescence by 35-65%. When the concentration of the peptides was increased further to 145 μM ([…]), the αB crystallin peptides decreased the ThT fluorescence by 13-27%. […] The formation and inhibition of β2-microglobulin fibrils was verified microscopically.
β2-microglobulin fibrillation ThT assays were performed as described previously. Raman et al., Biochem J 392:573-81, 2005; Ivanova et al., Proc Natl Acad Sci USA 101:10584-9, 2004. Peptides were dissolved to 2 mM in 0.25% DMSO and diluted accordingly, while β2-microglobulin was dissolved in 25 mM sodium acetate, 25 mM sodium phosphate, pH 2.4. For the 5:1::peptide:β2-microglobulin assay, 10 μL of 430 μM peptide was mixed with 10 μL of 86 μM β2-microglobulin, 7 μl of 25 mM sodium acetate, 25 mM sodium phosphate, pH 2.4 and 3 μL of 1 mM ThT. For the 1:1::peptide:β2-microglobulin assay, 10 μL of 86 μM peptide was mixed with 10 μL of 86 μM (2-microglobulin, 7 μl of 25 mM sodium acetate, 25 mM sodium phosphate, pH 2.4 and 3 μL of 1 mM ThT. For the 1:5::peptide:β2-microglobulin assay, 10 μL of 17.2 μM peptide was mixed with 10 μL of 86 μM β2-microglobulin, 7 μl of 25 mM sodium acetate, 25 mM sodium phosphate, pH 2.4 and 3 μL of 1 mM ThT. ThT fluorescence was measured using a Perkin Elmer Victor^3 V plate reader. Assays were performed in 384-well fluorescence plates in duplicates or triplicates. Samples were incubated at 37° C. ThT fluorescence was measured continuously for 180 minutes. The effect of the peptides and APS was calculated as percentage fibril formation relative to β2-microglobulin alone (100%) at the end of 180 minutes.

[1] = 1:1 and 1:10 molar ratio of amyloid-beta to peptide
[2] = 10:1 molar ratio of amyloid-beta to peptide

Sequence: DRFSVNLDVKHFS
- prevention of Cu+++-induced aggregation of amyloid-beta (amyloid beta (1-42); [1]): equally effective
- prevention of Cu+++-induced aggregation of amyloid-beta (amyloid beta (1-42); [2]): less effective

Sequence: HGKHEERQDE
- prevention of Cu+++-induced aggregation of amyloid-beta (amyloid beta (1-42); [1]): equally effective
- prevention of Cu+++-induced aggregation of amyloid-beta (amyloid beta (1-42); [2]): less effective
- effect on β2-microglobulin fibril formation, overall (β2-microglobulin (β2m)): most effective inhibitors

Sequence: LTITSSLSSDGV
- effect on β2-microglobulin fibril formation, overall (β2-microglobulin (β2m)): most effective inhibitors
